# Data published in paper PMC6265327, “Structure of DNA-CMG-Pol epsilon elucidates the roles of the non-catalytic polymerase modules in the eukaryotic replisome” (Nature Communications, 2018).
# T1: Mcm5, subunit of the purified CMG (yeast (strains based on W303), UniProt P29496 1-775)
# T1 construct: Mcm5, subunit of yeast CMG; The Mcm5 chain of m4; source: yeast overexpression strain yJCZ3, purified as part of CMG
# T1 sequence: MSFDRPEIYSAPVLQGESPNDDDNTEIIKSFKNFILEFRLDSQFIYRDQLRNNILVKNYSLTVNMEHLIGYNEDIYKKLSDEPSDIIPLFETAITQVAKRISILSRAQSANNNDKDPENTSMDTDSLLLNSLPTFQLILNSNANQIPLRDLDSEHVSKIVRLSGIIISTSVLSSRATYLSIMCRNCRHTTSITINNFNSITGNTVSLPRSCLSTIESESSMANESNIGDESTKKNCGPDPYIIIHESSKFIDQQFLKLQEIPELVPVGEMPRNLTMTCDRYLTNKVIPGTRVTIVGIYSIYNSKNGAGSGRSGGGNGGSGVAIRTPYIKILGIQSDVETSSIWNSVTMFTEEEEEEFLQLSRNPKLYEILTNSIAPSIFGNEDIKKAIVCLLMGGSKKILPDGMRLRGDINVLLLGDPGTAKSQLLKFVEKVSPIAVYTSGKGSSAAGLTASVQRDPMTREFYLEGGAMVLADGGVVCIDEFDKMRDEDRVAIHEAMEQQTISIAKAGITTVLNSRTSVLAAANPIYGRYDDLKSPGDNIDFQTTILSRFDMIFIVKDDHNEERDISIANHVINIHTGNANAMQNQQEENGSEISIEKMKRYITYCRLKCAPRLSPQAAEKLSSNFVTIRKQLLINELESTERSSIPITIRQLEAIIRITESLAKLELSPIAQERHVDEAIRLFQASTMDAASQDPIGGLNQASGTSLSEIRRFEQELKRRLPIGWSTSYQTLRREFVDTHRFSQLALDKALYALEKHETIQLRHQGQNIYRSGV
# B1: Dpb2, subunit of the CBP-tagged Pol epsilon complexes (deltacat and exo-) (natural protein, yeast (strains based on W303), UniProt P24482 1-689, looked up)
# chain: MFGSGNVLPVKIQPPLLRPLAYRVLSRKYGLSIKSDGLSALAEFVGTNIGANWRQGPATIKFLEQFAAVWKQQERGLFIDQSGVKEVIQEMKEREKVEWSHEHPIQHEENILGRTDDDENNSDDEMPIAADSSLQNVSLSSPMRQPTERDEYKQPFKPESSKALDWRDYFKVINASQQQRFSYNPHKMQFIFVPNKKQNGLGGIAGFLPDIEDKVQMFLTRYYLTNDRVMRNENFQNSDMFNPLSSMVSLQNELSNTNRQQQSSSMSITPIKNLLGRDAQNFLLLGLLNKNFKGNWSLEDPSGSVEIDISQTIPTQGHYYVPGCMVLVEGIYYSVGNKFHVTSMTLPPGERREITLETIGNLDLLGIHGISNNNFIARLDKDLKIRLHLLEKELTDHKFVILGANLFLDDLKIMTALSKILQKLNDDPPTLLIWQGSFTSVPVFASMSSRNISSSTQFKNNFDALATLLSRFDNLTENTTMIFIPGPNDLWGSMVSLGASGTLPQDPIPSAFTKKINKVCKNVVWSSNPTRIAYLSQEIVIFRDDLSGRFKRHRLEFPFNESEDVYTENDNMMSKDTDIVPIDELVKEPDQLPQKVQETRKLVKTILDQGHLSPFLDSLRPISWDLDHTLTLCPIPSTMVLCDTTSAQFDLTYNGCKVINPGSFIHNRRARYMEYVPSSKKTIQEEIYI
# notes: Dpb2, second largest subunit of yeast Pol epsilon; The complexes carry a CBP tag; The N-terminal domain is not seen in the deltacat map; also called NTD-Dpb2; CTD-Dpb2; source: yeast overexpression strain, galactose-induced; purified as part of Pol epsilon deltacat or exo- (calmodulin beads, Mono Q, gel filtration)
# How the values were obtained:
# Assay in all cases: cryo-EM structure; 250 nM CMG bound to a desthiobiotin-labelled pre-formed DNA fork on streptavidin beads with 2 mM ATPgammaS, then 80 nM Pol epsilon exo-, 30 °C, eluted with biotin; no crosslinker; 4.9 Å
# Conditions in all cases: both partners purified
# [1] = target: T2, Mcm3, subunit of the purified CMG (yeast (strains based on W303), UniProt P24279 1-971)
# T2 construct: Mcm3, subunit of yeast CMG; The Mcm3 chain of m4; source: yeast overexpression strain yJCZ3, purified as part of CMG
# [2] = target: T1, Mcm5, subunit of the purified CMG
# [3] = target: B1
# T2 sequence (P24279 whole entry): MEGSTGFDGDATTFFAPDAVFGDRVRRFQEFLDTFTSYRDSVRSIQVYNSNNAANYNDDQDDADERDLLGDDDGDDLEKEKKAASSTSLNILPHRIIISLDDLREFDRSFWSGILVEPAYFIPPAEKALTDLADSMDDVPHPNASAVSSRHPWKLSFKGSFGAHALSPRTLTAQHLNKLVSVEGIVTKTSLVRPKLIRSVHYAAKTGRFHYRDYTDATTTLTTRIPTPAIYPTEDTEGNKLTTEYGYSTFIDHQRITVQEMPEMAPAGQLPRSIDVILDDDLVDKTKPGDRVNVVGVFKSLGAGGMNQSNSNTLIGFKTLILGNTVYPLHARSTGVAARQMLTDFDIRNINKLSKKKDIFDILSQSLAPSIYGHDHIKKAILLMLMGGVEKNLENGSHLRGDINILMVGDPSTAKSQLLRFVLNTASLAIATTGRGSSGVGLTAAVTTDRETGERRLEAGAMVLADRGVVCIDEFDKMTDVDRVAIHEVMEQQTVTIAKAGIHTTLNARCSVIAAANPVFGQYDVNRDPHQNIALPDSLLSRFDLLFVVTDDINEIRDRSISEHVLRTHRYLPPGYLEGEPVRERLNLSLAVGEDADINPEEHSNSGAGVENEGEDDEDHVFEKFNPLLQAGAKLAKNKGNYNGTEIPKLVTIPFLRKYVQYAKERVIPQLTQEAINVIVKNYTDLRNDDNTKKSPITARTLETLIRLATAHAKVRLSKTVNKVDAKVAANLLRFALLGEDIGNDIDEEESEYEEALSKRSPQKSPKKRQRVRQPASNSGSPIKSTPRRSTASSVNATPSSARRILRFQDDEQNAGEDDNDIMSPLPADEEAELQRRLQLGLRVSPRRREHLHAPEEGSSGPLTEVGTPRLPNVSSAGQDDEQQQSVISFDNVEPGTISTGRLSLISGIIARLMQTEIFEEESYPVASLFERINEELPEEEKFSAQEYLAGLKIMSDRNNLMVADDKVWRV
Binder,binding result [1],binding result [2],binding result [3]
B1,binds,binds,–
"Psf1, GINS subunit of the purified CMG (natural protein, yeast (strains based on W303), Psf1, GINS subunit of yeast CMG; The Psf1 chain of m4; source: yeast overexpression strain yJCZ3, purified as part of CMG) MYGDLGNKLVLEAKRTKQLYARSNQDVNLPMYHEDIIRNILKEVSNLRKNTEYLKEQQQLGMLDDKVAKCQYFVTLLCMERNKRCLLAYQRLRTDILDSMAWNNNGLDLMSSITFSQQDTNNLSHQEQEYLKEYCDLITDLKSGDLVDIDLSGSLVPPSDVFIDVRVLKDAGEIQTEYGVFNLIKDSQFFVRQSDVERLIQQGYLQKI",–,–,binds
